Columns and labels:
Format in all cases: in vivo
[1] = test system: non-insulin dependent diabetic mellitus (NIDDM) male mice C57BLK/J-m+/Lepr db; experiment: Serum glucose after oral rhLF for 15 days in diabetic db/db mice; settings: Day 15 Post (90 min after dosing), fasted 3 h, relative to placebo
Experimental: (§1) RhLF (650 mg/kg and 65 mg/kg) and vehicle/placebo (rhLF diluent buffer pH 7.0) were administered orally once daily for 15 consecutive days to groups of 4 non-insulin dependent diabetic mellitus (NIDDM) male mice. […] All animals were allowed free access to normal laboratory chow and water. Blood samples were withdrawn from the orbital sinus immediately before dosing on day 1 (Day 1 Pre) and 90 minutes after the first administration on day 15 (Day 15 Post). The animals were fasted for 3 hours prior to sampling. Serum glucose levels were determined by enzymatic method (mutaratase-GOD). Four animals per cohort were studied. Reduction and p-value (1-tailed) were determined relative to placebo.

[2] = test system: non-insulin dependent diabetic mellitus (NIDDM) male mice (C57BLK/J-m+/Lepr db); experiment: Serum insulin (ELISA) after oral rhLF for 15 days in diabetic mice; settings: 650 and 65 mg/kg orally once daily for 15 days, Day 15 Post, fasted 3 h
Experimental: as §1, with “(650” for “(650 mg/kg”, “last” for “first”, “sampling.” for “sampling. Serum glucose levels were determined by enzymatic method (mutaratase-GOD). Four animals per cohort were studied. Reduction and p-value (1-tailed) were determined relative to placebo.”

[3] = test system: non-insulin dependent diabetic mellitus (NIDDM) male mice (C57BLKS/J-m+/+Lepr db); experiment: Serum glucose and total body weight after oral rhLF for 20 days in diabetic mice; settings: 65 mg/kg orally via gavage once per day for 20 days
Experimental: Five groups of 6 non-insulin dependent diabetic mellitus (NIDDM) male mice (C57BLKS/J-m+/+Lepr db) weighing 50±grams and 9-10 weeks old were given either rhLF vehicle (Placebo), or RhLF (65 mg/kg) orally via gavage for 20 days (once per day) in a volume of 0.13 ml. Blood samples were obtained from the orbital sinus on day 0 and day 20 at 90 minutes following the last administration. Animals were fasted for 3 hours prior to sampling. Serum glucose levels were determined by enzymatic method (mutaratase-GOD). Total body weight measurements were determined on days 0 and 20. Percentage differences were determined with respect to pre-treatment values and analyzed statistically with the unpaired Student' t test. Differences were considered significant at p values of less than 0.05.

[4] = test system: non-insulin dependent diabetic mellitus (NIDDM) male mice (C57BLKS/J-m+/+Lepr db); experiment: Serum glucose after topical rhLF gel for 20 days in diabetic mice; settings: RhLF gel (1%) topically, 0.2 mg per mouse once per day for 20 days onto a 12 mm punch excision; day 20; with respect to pre-treatment values
Experimental: Two groups of 6 non-insulin dependent diabetic mellitus (NIDDM) male mice (C57BLKS/J-m+/+Lepr db) weighing 50+grams and 9-10 weeks old were given either rhLF vehicle (Placebo), or RhLF gel (1%) topically (0.2 mg per mouse/once per day) for 20 days applied directly onto a 12 mm punch excision. Blood samples were obtained from the orbital sinus on day 0 and day 20 at 90 minutes. The animals were fasted for 3 hours prior to sampling. Serum glucose levels were determined by enzymatic method (mutaratase-GOD). Percentage differences were determined with respect to pre-treatment values and analyzed statistically with the unpaired Student' t test. Differences were considered significant at p values of less than 0.05 (FIG. 4).

B1: RhLF: Recombinant human lactoferrin, a single chain metal binding glycoprotein; given orally in diluent buffer or topically as 1% gel (protein, UniProt P02788 20-710, looked up)
Lactotransferrin: GRRRSVQWCAVSQPEATKCFQWQRNMRKVRGPPVSCIKRDSPIQCIQAIAENRADAVTLDGGFIYEAGLAPYKLRPVAAEVYGTERQPRTHYYAVAVVKKGGSFQLNELQGLKSCHTGLRRTAGWNVPIGTLRPFLNWTGPPEPIEAAVARFFSASCVPGADKGQFPNLCRLCAGTGENKCAFSSQEPYFSYSGAFKCLRDGAGDVAFIRESTVFEDLSDEAERDEYELLCPDNTRKPVDKFKDCHLARVPSHAVVARSVNGKEDAIWNLLRQAQEKFGKDKSPKFQLFGSPSGQKDLLFKDSAIGFSRVPPRIDSGLYLGSGYFTAIQNLRKSEEEVAARRARVVWCAVGEQELRKCNQWSGLSEGSVTCSSASTTEDCIALVLKGEADAMSLDGGYVYTAGKCGLVPVLAENYKSQQSSDPDPNCVDRPVEGYLAVAVVRRSDTSLTWNSVKGKKSCHTAVDRTAGWNIPMGLLFNQTGSCKFDEYFSQSCAPGSDPRSNLCALCIGDEQGENKCVPNSNERYYGYTGAFRCLAENAGDVAFVKDVTVLQNTDGNNNEAWAKDLKLADFALLCLDGKRKPVTEARSCHLAMAPNHAVVSRMDKVERLKQVLLHQQAKFGRNGSDCPDKFCLFQSETKNLLFNDNTECLARLHGKTTYEKYLGPQYVAGITNLKKCSTSPLLEACEFLRK
[1]; 65 mg/kg orally once daily for 15 days
  reduction in serum glucose: 14.6%
[1]; 650 mg/kg orally once daily for 15 days
  reduction in serum glucose: 19.0%
[2]
  serum insulin levels: increase
[3]; day 20, 90 min after last administration, with respect to pre-treatment values
  reduction in serum glucose: 13.8%
[3]; day 20 vs day 0
  reduction in body weight: 7.7%
[4]
  reduction of serum glucose: 10.9%

Reference: patent US7262279B2, “Lactoferrin in the treatment of diabetes mellitus” (Agennix, Inc., priority 2003, dated 2007)
